# From publication PMC5228590 (Journal of bone and mineral research : the official journal …, 2016)
# Biological target: vimentin (mouse (endogenous in MC-3T3 and in …, UniProt P20152 1-466))
# Assay: co-IP
# Sequence of vimentin (mouse (P20152 whole entry): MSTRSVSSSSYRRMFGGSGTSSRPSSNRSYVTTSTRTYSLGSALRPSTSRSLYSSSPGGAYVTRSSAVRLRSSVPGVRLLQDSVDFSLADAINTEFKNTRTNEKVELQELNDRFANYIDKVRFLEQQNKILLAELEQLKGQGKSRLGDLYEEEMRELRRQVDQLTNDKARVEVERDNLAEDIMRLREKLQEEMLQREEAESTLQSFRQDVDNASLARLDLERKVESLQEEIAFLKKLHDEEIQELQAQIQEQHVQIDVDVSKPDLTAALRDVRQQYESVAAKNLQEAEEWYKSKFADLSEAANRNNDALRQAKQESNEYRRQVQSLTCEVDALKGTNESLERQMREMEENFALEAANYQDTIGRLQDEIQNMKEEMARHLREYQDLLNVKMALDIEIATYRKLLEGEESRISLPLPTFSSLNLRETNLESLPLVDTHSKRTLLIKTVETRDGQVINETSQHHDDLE
binder,measurement,value
"activated PKCζ (phosphorylated on threonine 410) (enzyme, mouse (endogenous in MC-3T3), UniProt Q02956 1-592, looked up, phosphothreonine at 410) MPSRTDPKMDRSGGRVRLKAHYGGDILITSVDAMTTFKDLCEEVRDMCGLHQQHPLTLKWVDSEGDPCTVSSQMELEEAFRLVCQGRDEVLIIHVFPSIPEQPGMPCPGEDKSIYRRGARRWRKLYRANGHLFQAKRFNRGAYCGQCSERIWGLSRQGYRCINCKLLVHKRCHVLVPLTCRRHMDSVMPSQEPPVDDKNDGVDLPSEETDGIAYISSSRKHDNIKDDSEDLKPVIDGVDGIKISQGLGLQDFDLIRVIGRGSYAKVLLVRLKKNDQIYAMKVVKKELVHDDEDIDWVQTEKHVFEQASSNPFLVGLHSCFQTTSRLFLVIEYVNGGDLMFHMQRQRKLPEEHARFYAAEICIALNFLHERGIIYRDLKLDNVLLDADGHIKLTDYGMCKEGLGPGDTTSTFCGTPNYIAPEILRGEEYGFSVDWWALGVLMFEMMAGRSPFDIITDNPDMNTEDYLFQVILEKPIRIPRFLSVKASHVLKGFLNKDPKERLGCRPQTGFSDIKSHAFFRSIDWDLLEKKQTLPPFQPQITDDYGLDNFDTQFTSEPVQLTPDDEDVIKRIDQSEFEGFEYINPLLLSAEESV",fold increase of the association with IGF-I,3.5 fold
